Measurements: patent publication US20070134720
Where a chain is given by its changes, count along the chain named. Names and notes keep the numbering of the source.

B1: Syno RING synoviolin protein (GST moiety removed by thrombin) (protein)
chain: IRNMNTLYPDATPEELQAMDNVCIICREEMVTGAKRLPCNHIFHTSCLRSWFQRQQTCPTCRMDVLRASLPAQSPPPPEPADQGPPPAPHPPPLLPQPPNFPQGLLPPFPPGMFPLWPPMGPFPPVPPPPSSGEAVAPPSTSAAALSRPSGA
B2: Syno dTM (dRING) with 291st to 329th amino acid deletion (GST moiety removed by thrombin) (protein)
chain: KVHTFPLFAIRPMYLAMRQFKKAVTDAIMSRRAIRNMNTLYPDATPEELQAMDNVRMDVLRASLPAQSPPPPEPADQGPPPAPHPPPLLPQPPNFPQGLLPPFPPGMFPLWPPMGPFPPVPPPPSSGEAVAPPSTSAAALSRPSGAATTTAAGTSATAASATASGPGSGSAPEAGPAPGFPFPPPWMGMPLPPPFAFPPMPVPPAGFAGLTPEELRALEGHERQHLEARLQSLRNIHTLLDAAMLQINQYLTVLASLGPPRPATSVNSTEGTATTVVAAASSTSIPSSEATTPTPGASPPAPEMERPPAPESVGTEEMPEDGEPDAAELRRRRLQKLESPVAH
B3: Syno dTM synoviolin protein (GST moiety removed by thrombin) (protein)
chain: KVHTFPLFAIRPMYLAMRQFKKAVTDAIMSRRAIRNMNTLYPDATPEELQAMDNVCIICREEMVTGAKRLPCNHIFHTSCLRSWFQRQQTCPTCRMDVLRASLPAQSPPPPEPADQGPPPAPHPPPLLPQPPNFPQGLLPPFPPGMFPLWPPMGPFPPVPPPPSSGEAVAPPSTSAAALSRPSGAATTTAAGTSATAASATASGPGSGSAPEAGPAPGFPFPPPWMGMPLPPPFAFPPMPVPPAGFAGLTPEELRALEGHERQHLEARLQSLRNIHTLLDAAMLQINQYLTVLASLGPPRPATSVNSTEGTATTVVAAASSTSIPSSEATTPTPGASPPAPEMERPPAPESVGTEEMPEDGEPDAAELRRRRLQKLESPVAH
B4: Syno dTM (C307S) with 307th cysteine to serine substitution (GST moiety removed by thrombin) (protein)
chain: B3 chain with C72S

These proteins were tested against GST-fused P4HA1 protein (whole region of P4HA1).
Sequence of GST-fused P4HA1 protein (whole region of P4HA1) (chain, as listed by the source): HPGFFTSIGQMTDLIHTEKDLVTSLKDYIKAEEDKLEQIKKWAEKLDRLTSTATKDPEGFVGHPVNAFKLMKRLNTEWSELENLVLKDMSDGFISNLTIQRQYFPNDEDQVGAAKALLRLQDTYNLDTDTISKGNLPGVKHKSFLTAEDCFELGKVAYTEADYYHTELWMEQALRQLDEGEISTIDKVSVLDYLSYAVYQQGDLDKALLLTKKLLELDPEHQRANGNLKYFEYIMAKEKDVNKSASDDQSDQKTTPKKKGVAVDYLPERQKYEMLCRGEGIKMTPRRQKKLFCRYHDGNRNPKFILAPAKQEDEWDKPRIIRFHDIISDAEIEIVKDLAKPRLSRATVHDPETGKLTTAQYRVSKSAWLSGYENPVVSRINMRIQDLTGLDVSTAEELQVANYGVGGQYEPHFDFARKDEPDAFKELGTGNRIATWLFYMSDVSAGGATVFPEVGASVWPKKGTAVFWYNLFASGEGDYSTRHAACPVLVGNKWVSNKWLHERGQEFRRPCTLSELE

Protein	in vitro ubiquitination (32P-labeled ubiquitin, E1, E2 UbCH5c, ATP; SDS-PAGE autoradiography)
B1	P4HA1 was ubiquitinated by Syno dTM and Syno RING
B2	P4HA1 was not ubiquitinated by Syno dTM (C307S) and Syno dTM (dRING)
B3	P4HA1 was ubiquitinated by Syno dTM and Syno RING
B4	P4HA1 was not ubiquitinated by Syno dTM (C307S) and Syno dTM (dRING)
